± gives the standard deviation of the averaged measurements.
Tested on: ATP
Assay: switch fluorescence ratio, 500 uM ATP over buffer (Cy3 cluster intensity, sum of 5 cycles each) (fold (ratio)); higher = stronger signal-on switching upon ATP binding; sequences stand for … in TCGTCGGCAGCGTCAGATGTGTATAAGAGACAGTTTTTTTTTTTTTTTTTTTTTTTTT…TC
Settings: aptamer strand: ATP DNA aptamer (quencher-CACCTGGGGGAGTATTGCGGAGGAAGG + anchor), 100 nM annealed; ATP concentration: 500 uM
Method in brief: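 Clusters with intensities outside 100-1000 RFU were excluded. The remaining Cy3-labelled switching-strand clusters on a modified Illumina MiSeq flow-cell had been annealed to 100 nM quencher-labelled ATP aptamer and imaged in selection buffer, then after 15 min with 500 uM ATP at 22 °C, for five cycles separated by NaOH stripping and re-annealing. The fluorescence ratio, averaged per switch-domain sequence, is each cluster's summed target-cycle Cy3 intensity over its summed buffer-cycle Cy3 intensity.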
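Further: ATP exposure 15 min at 22 °C before imaging.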

Sequence	switch fluorescence ratio
TTTACGTGTT	0.991 ± 0.012
TTTACTAGCA	1.04 ± 0.11
TTTACTGCCT	1.06 ± 0.022
TTTACTGGTG	1.13 ± 0.012
TTTACTTAGG	1.04 ± 0.023
TTTACTTTGG	0.982 ± 0.034
TTTACTTTTC	1.49 ± 0.75
TTTAGACAAT	1.02 ± 0.022
TTTAGACGGG	0.965 ± 0.028
TTTAGACGGT	1.02 ± 0.066
TTTAGACGTG	0.976 ± 0.012
TTTAGAGTCC	1.05 ± 0.098
TTTAGAGTGC	1 ± 0.093
TTTAGATATA	1.031 ± 0.0011
TTTAGATCTT	0.981 ± 0.012
TTTAGATTGT	1.01 ± 0.029
TTTAGCAGGG	1.01 ± 0.026
TTTAGCATGG	1.01 ± 0.047
TTTAGCGCAT	1.04 ± 0.06
TTTAGCGTTT	0.997 ± 0.051
TTTAGCTAGG	1.01 ± 0.033
TTTAGCTAGT	1.01 ± 0.032
TTTAGGAGGA	0.997 ± 0.025
TTTAGGATTT	0.985 ± 0.027
TTTAGGCTGG	0.979 ± 0.022

Sequence	switch fluorescence ratio
TTTAGGCTTT	1 ± 0.012
TTTAGGGCGG	0.994 ± 0.017
TTTAGGGGAG	0.994 ± 0.022
TTTAGGGTCA	0.962 ± 0.062
TTTAGGTCAT	1.01 ± 0.083
TTTAGGTTTT	1.01 ± 0.021
TTTAGTACCT	1.2 ± 0.044
TTTAGTGGGC	0.9843 ± 0.0081
TTTAGTGGGG	0.97 ± 0.01
TTTAGTTGTT	1.01 ± 0.03
TTTAGTTTTT	0.996 ± 0.042
TTTATAAAAA	0.998 ± 0.026
TTTATAAAAT	0.987 ± 0.039
TTTATAAGGT	0.988 ± 0.012
TTTATAATTA	0.982 ± 0.013
TTTATAGAAA	1.05 ± 0.02
TTTATAGCGA	1.63 ± 0.54
TTTATAGCGG	0.996 ± 0.015
TTTATAGTAA	0.98978 ± 0.00052
TTTATAGTCT	0.99 ± 0.021
TTTATAGTGT	0.9894 ± 0.0097
TTTATAGTTT	1.01 ± 0.026
TTTATATGAA	0.97 ± 0.042
TTTATATGCG	1 ± 0.027
TTTATATTTT	1.02 ± 0.034

Sequence	switch fluorescence ratio
TTTATCCTTT	0.98 ± 0.025
TTTATCGGGA	0.978 ± 0.017
TTTATCGTTG	0.998 ± 0.025
TTTATCTGAT	0.965 ± 0.025
TTTATGAGCT	1.03 ± 0.014
TTTATGAGGA	1.02 ± 0.021
TTTATGATGC	1.011 ± 0.0092
TTTATGCACT	1.05 ± 0.051
TTTATGCAGC	1.12 ± 0.16
TTTATGCTGT	0.976 ± 0.02
TTTATGGAGG	0.991 ± 0.02
TTTATGGCTA	1.03 ± 0.011
TTTATGGGAT	0.986 ± 0.032
TTTATGGGCG	1.34 ± 0.64
TTTATGTCCA	0.9923 ± 0.0021
TTTATGTCCG	1.04 ± 0.042
TTTATGTCGC	1.01 ± 0.054
TTTATGTCGT	0.986 ± 0.038
TTTATTACGC	0.999 ± 0.053
TTTATTAGTA	0.983 ± 0.024
TTTATTCAGG	1.02 ± 0.032
TTTATTCCGT	0.999 ± 0.037
TTTATTGACG	0.886 ± 0.012
TTTATTGATG	0.997 ± 0.016
TTTATTGGTT	1.07 ± 0.1

Sequence	switch fluorescence ratio
TTTATTTGGA	1.018 ± 0.0012
TTTATTTTCG	1.02 ± 0.037
TTTATTTTCT	0.991 ± 0.015
TTTCAAAGGG	0.994 ± 0.015
TTTCAAATCA	1.01 ± 0.037
TTTCAAGAGT	1.03 ± 0.034
TTTCAAGCAT	1.02 ± 0.017
TTTCAAGGGT	0.9851 ± 0.0031
TTTCAATCAT	0.983 ± 0.038
TTTCAATTTT	0.996 ± 0.026
TTTCACACGT	1.02 ± 0.024
TTTCACAGCT	1.03 ± 0.041
TTTCAGGACT	0.996 ± 0.041
TTTCAGGGAA	0.99 ± 0.054
TTTCAGGGAG	1.04 ± 0.056
TTTCAGGTGG	1.02 ± 0.015
TTTCAGTATG	1.02 ± 0.023
TTTCAGTTCT	0.9773 ± 0.005
TTTCATCCCC	1.07 ± 0.034
TTTCCACAGG	1.396 ± 0.0082
TTTCCAGTTC	1.37 ± 0.57
TTTCCCAAAA	1.04 ± 0.08
TTTCCCAATT	1.16 ± 0.16
TTTCCCGCTC	1.93 ± 0.33
TTTCCGATTT	0.9886 ± 0.0024

Sequence	switch fluorescence ratio
TTTCCGGATT	1.02 ± 0.059
TTTCCGTTAT	2.41 ± 1.9
TTTCCGTTGA	1.23 ± 0.32
TTTCCGTTTG	1.16 ± 0.32
TTTCCTCTGG	1.95 ± 1.4
TTTCCTGGGG	1.04 ± 0.039
TTTCCTGTAT	0.972 ± 0.046
TTTCCTTTGG	1.01 ± 0.032
TTTCGAAAGG	0.983 ± 0.043
TTTCGAAGGG	1.04 ± 0.07
TTTCGAGAAG	1.05 ± 0.054
TTTCGAGGAC	0.983 ± 0.011
TTTCGATGTT	0.95 ± 0.051
TTTCGATTTT	0.993 ± 0.04
TTTCGCCATT	1.3 ± 0.46
TTTCGGAATT	1.35 ± 0.48
TTTCGGCTTT	1.24 ± 0.3
TTTCGGGACT	1.03 ± 0.048
TTTCGGGGCA	1.02 ± 0.034
TTTCGGGGTG	1.09 ± 0.17
TTTCGGGTAT	1.05 ± 0.011
TTTCGGGTTG	1.02 ± 0.042
TTTCGGGTTT	0.989 ± 0.028
TTTCGGTAAA	1.026 ± 0.0039
TTTCGGTGTT	0.981 ± 0.041

Sequence	switch fluorescence ratio
TTTCGGTTCT	0.991 ± 0.012
TTTCGGTTGG	0.999 ± 0.032
TTTCGGTTGT	1 ± 0.022
TTTCGTACGG	1.03 ± 0.087
TTTCGTATTG	0.991 ± 0.02
TTTCGTCAGG	0.997 ± 0.038
TTTCGTCATG	1.03 ± 0.065
TTTCGTGCTT	1.02 ± 0.032
TTTCGTGGCA	1.02 ± 0.066
TTTCGTGGTC	1.02 ± 0.015
TTTCGTGTAG	1 ± 0.032
TTTCGTTCGC	1.302 ± 0.013
TTTCGTTGTA	0.973 ± 0.001
TTTCTAACTC	1 ± 0.053
TTTCTACTCG	0.995 ± 0.017
TTTCTAGTGG	0.999 ± 0.03
TTTCTATACG	1.02 ± 0.031
TTTCTATATA	1 ± 0.052
TTTCTCGTAA	1.58 ± 0.55
TTTCTGATTT	0.983 ± 0.022
TTTCTGCAGC	1.24 ± 0.14
TTTCTGGCTT	1.02 ± 0.051
TTTCTGGTT	1.01 ± 0.038
TTTCTTAGTG	0.9622 ± 0.0086
TTTCTTGGGA	1 ± 0.059

Sequence	switch fluorescence ratio
TTTCTTTAGT	1 ± 0.04
TTTCTTTCAA	1.01 ± 0.021
TTTCTTTGAT	0.998 ± 0.029
TTTCTTTGCA	1.058 ± 0.0081
TTTCTTTTGG	1.1 ± 0.09
TTTGAA	0.9556 ± 0.0024
TTTGAAAAGG	1.01 ± 0.039
TTTGAACTGT	1.18 ± 0.14
TTTGAACTTG	1.01 ± 0.024
TTTGAAGGTA	1.01 ± 0.025
TTTGAATGGG	0.985 ± 0.029
TTTGACATGG	0.955 ± 0.029
TTTGACGCAT	1.6 ± 0.67
TTTGACGGGC	1.05 ± 0.032
TTTGACTTTC	1.07 ± 0.025
TTTGAGAATC	0.977 ± 0.017
TTTGAGAGCT	0.977 ± 0.014
TTTGAGAGTT	1.03 ± 0.058
TTTGAGCAGA	0.97 ± 0.02
TTTGAGCTGT	1.02 ± 0.042
TTTGAGGCCT	0.99 ± 0.025
TTTGAGGGTG	1.07 ± 0.065
TTTGAGGGTT	0.983 ± 0.026
TTTGAGGTCG	1.06 ± 0.063
TTTGAGGTCT	1.05 ± 0.072

Sequence	switch fluorescence ratio
TTTGAGTGGC	0.969 ± 0.041
TTTGAGTGGT	0.993 ± 0.013
TTTGAGTGTG	0.997 ± 0.03
TTTGAGTGTT	0.985 ± 0.011
TTTGAGTTTT	0.989 ± 0.034
TTTGATAAAA	0.972 ± 0.039
TTTGATATAA	0.991 ± 0.031
TTTGATCACG	1.02 ± 0.031
TTTGATCGGG	0.978 ± 0.015
TTTGATGGGT	0.993 ± 0.048
TTTGATGGTT	1.01 ± 0.011
TTTGATGTGC	1.07 ± 0.064
TTTGATGTTG	0.976 ± 0.033
TTTGATTTAG	0.989 ± 0.026
TTTGCAAATT	1.03 ± 0.039
TTTGCAAGTA	1.2 ± 0.3
TTTGCAATAA	2.35 ± 1.7
TTTGCACAGC	0.997 ± 0.051
TTTGCACTGT	0.998 ± 0.055
TTTGCATCTT	0.9984 ± 0.0022
TTTGCATGAT	0.982 ± 0.017
TTTGCATTTG	1.03 ± 0.013
TTTGCCGCGG	0.995 ± 0.023
TTTGCCGGCG	0.97337 ± 0.00069
TTTGCCGGTA	1.01 ± 0.014

— the supplement of paper PMC10126150
